Data: patent US12577311

Tests used:
[1] = target: CD70-APC (UniProt P32970); test: FACS binding
[2] = target: CD70 on CD70+ skrc-59 ccRCC cells (UniProt P32970); test: FACS binding; conditions: Fc fusion
Sequence of CD70 on CD70+ skrc-59 ccRCC cells (P32970 whole entry, the tested form may be a part): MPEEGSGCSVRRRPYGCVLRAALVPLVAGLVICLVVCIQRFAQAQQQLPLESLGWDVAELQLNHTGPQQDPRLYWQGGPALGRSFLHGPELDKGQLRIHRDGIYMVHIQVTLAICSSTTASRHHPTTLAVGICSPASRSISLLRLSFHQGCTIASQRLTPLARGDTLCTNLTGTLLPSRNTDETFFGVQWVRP

Sequence of CD70-APC (P32970 39-193): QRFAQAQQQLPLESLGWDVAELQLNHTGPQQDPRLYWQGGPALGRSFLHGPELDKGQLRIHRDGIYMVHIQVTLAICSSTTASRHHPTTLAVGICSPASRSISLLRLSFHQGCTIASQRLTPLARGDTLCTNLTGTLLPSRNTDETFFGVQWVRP

Row | EC50 [1] [µg/mL] | EC50 [2] [µg/mL] | Substance
1 | 0.917 | – | CD27
2 | – | 0.114 | anti-CD70 minibody #7 (from UniProt P01721 20-117)
